Laboratory results reported in PMC10980815, “Cell surface patching via CXCR4-targeted nanothreads for cancer metastasis inhibition” (Nature Communications, 2024).
Ends that are not written are not given here. HPMA copolymer = HPMA copolymer made by RAFT copolymerization of HPMA with N-(3-aminopropyl)methacrylamide (APMA), bearing maleimide groups for grafting

Experiment: Pharmacokinetics at each cycle of a four-round treatment regimen
Type: in vivo, female mice
Parameters: PK curves: unit not given here
Settings: for AUC0-t / AUC0-∞ / MRT0-t / MRT0-∞ / T1/2z: same

P-CM2-Cy3: Cy3-labeled P-CM2 (C(HPMA copolymer)YGGEVSALEKEVSALEKKNSALEKEVSALEKEVSALEK; also: Cy3 label on conjugate, position not given here)
PK curves (Round 3, Time 0.041667 Day, replicate 1): 171.135 | PK curves (Round 3, Time 0.041667 Day, replicate 2): 180.496 | PK curves (Round 3, Time 0.041667 Day, replicate 3): 188.668 | PK curves (Round 3, Time 0.041667 Day, replicate 4): 205.584 | PK curves (Round 3, Time 0.041667 Day, replicate 5): 224.681 | PK curves (Round 3, Time 0.083333 Day, replicate 1): 156.708 | PK curves (Round 3, Time 0.083333 Day, replicate 2): 161.465 | PK curves (Round 3, Time 0.083333 Day, replicate 3): 162.063 | PK curves (Round 3, Time 0.083333 Day, replicate 4): 168.293 | PK curves (Round 3, Time 0.083333 Day, replicate 5): 190.32 | PK curves (Round 3, Time 0.166667 Day, replicate 1): 118.152 | PK curves (Round 3, Time 0.166667 Day, replicate 2): 137.258 | PK curves (Round 3, Time 0.166667 Day, replicate 3): 138.998 | PK curves (Round 3, Time 0.166667 Day, replicate 4): 139.637 | PK curves (Round 3, Time 0.166667 Day, replicate 5): 146.663 | PK curves (Round 3, Time 0.25 Day, replicate 1): 101.928 | PK curves (Round 3, Time 0.25 Day, replicate 2): 105.033 | PK curves (Round 3, Time 0.25 Day, replicate 3): 108.293 | PK curves (Round 3, Time 0.25 Day, replicate 4): 115.298 | PK curves (Round 3, Time 0.25 Day, replicate 5): 119.681 | PK curves (Round 3, Time 0.333333 Day, replicate 1): 71.2229 | PK curves (Round 3, Time 0.333333 Day, replicate 2): 72.9543 | PK curves (Round 3, Time 0.333333 Day, replicate 3): 93.0071 | PK curves (Round 3, Time 0.333333 Day, replicate 4): 101.069 | PK curves (Round 3, Time 0.333333 Day, replicate 5): 102.809 | PK curves (Round 3, Time 0.5 Day, replicate 1): 54.5332 | PK curves (Round 3, Time 0.5 Day, replicate 2): 55.1656 | PK curves (Round 3, Time 0.5 Day, replicate 3): 58.857 | PK curves (Round 3, Time 0.5 Day, replicate 4): 63.5997 | PK curves (Round 3, Time 0.5 Day, replicate 5): 67.2877 | PK curves (Round 3, Time 1 Day, replicate 1): 18.8846 | PK curves (Round 3, Time 1 Day, replicate 2): 19.9794 | PK curves (Round 3, Time 1 Day, replicate 3): 34.0857 | PK curves (Round 3, Time 1 Day, replicate 4): 37.3031 | PK curves (Round 3, Time 1 Day, replicate 5): 39.9731 | PK curves (Round 3, Time 2 Day, replicate 1): 13.6659 | PK curves (Round 3, Time 2 Day, replicate 2): 15.2182 | PK curves (Round 3, Time 2 Day, replicate 3): 16.959 | PK curves (Round 3, Time 2 Day, replicate 4): 18.4095 | PK curves (Round 3, Time 2 Day, replicate 5): 23.265 | PK curves (Round 3, Time 3 Day, replicate 1): 5.299 | PK curves (Round 3, Time 3 Day, replicate 2): 5.6755 | PK curves (Round 3, Time 3 Day, replicate 3): 6.127 | PK curves (Round 3, Time 3 Day, replicate 4): 11.4512 | PK curves (Round 3, Time 3 Day, replicate 5): 11.8082 | AUC0-t (Round 3): 2847.475 ± 463.394 ng·h/mL | AUC0-∞ (Round 3): 3060.689 ± 565.511 ng·h/mL | MRT0-t (Round 3): 17.779 ± 1.27 h | MRT0-∞ (Round 3): 23.927 ± 3.854 h | T1/2z (Round 3): 19.193 ± 3.042 h | PK curves (Round 4, Time 0.041667 Day, replicate 1): 230.725 | PK curves (Round 4, Time 0.041667 Day, replicate 2): 194.218 | PK curves (Round 4, Time 0.041667 Day, replicate 3): 209.902 | PK curves (Round 4, Time 0.041667 Day, replicate 4): 229.24 | PK curves (Round 4, Time 0.041667 Day, replicate 5): 229.61 | PK curves (Round 4, Time 0.083333 Day, replicate 1): 173.583 | PK curves (Round 4, Time 0.083333 Day, replicate 2): 157.544 | PK curves (Round 4, Time 0.083333 Day, replicate 3): 163.249 | PK curves (Round 4, Time 0.083333 Day, replicate 4): 167.214 | PK curves (Round 4, Time 0.083333 Day, replicate 5): 205.861 | PK curves (Round 4, Time 0.166667 Day, replicate 1): 141.479 | PK curves (Round 4, Time 0.166667 Day, replicate 2): 127.721 | PK curves (Round 4, Time 0.166667 Day, replicate 3): 129.082 | PK curves (Round 4, Time 0.166667 Day, replicate 4): 138.936 | PK curves (Round 4, Time 0.166667 Day, replicate 5): 150.211 | PK curves (Round 4, Time 0.25 Day, replicate 1): 117.333 | PK curves (Round 4, Time 0.25 Day, replicate 2): 116.423 | PK curves (Round 4, Time 0.25 Day, replicate 3): 120.111 | PK curves (Round 4, Time 0.25 Day, replicate 4): 124.299 | PK curves (Round 4, Time 0.25 Day, replicate 5): 125.432 | PK curves (Round 4, Time 0.333333 Day, replicate 1): 69.1458 | PK curves (Round 4, Time 0.333333 Day, replicate 2): 73.8277 | PK curves (Round 4, Time 0.333333 Day, replicate 3): 84.2185 | PK curves (Round 4, Time 0.333333 Day, replicate 4): 100.254 | PK curves (Round 4, Time 0.333333 Day, replicate 5): 118.152 | PK curves (Round 4, Time 0.5 Day, replicate 1): 43.1042 | PK curves (Round 4, Time 0.5 Day, replicate 2): 47.0545 | PK curves (Round 4, Time 0.5 Day, replicate 3): 50.0192 | PK curves (Round 4, Time 0.5 Day, replicate 4): 54.418 | PK curves (Round 4, Time 0.5 Day, replicate 5): 70.7604 | PK curves (Round 4, Time 1 Day, replicate 1): 21.2271 | PK curves (Round 4, Time 1 Day, replicate 2): 23.1099 | PK curves (Round 4, Time 1 Day, replicate 3): 27.0861 | PK curves (Round 4, Time 1 Day, replicate 4): 30.0884 | PK curves (Round 4, Time 1 Day, replicate 5): 41.0104 | PK curves (Round 4, Time 2 Day, replicate 1): 4.911 | PK curves (Round 4, Time 2 Day, replicate 2): 16.8258 | PK curves (Round 4, Time 2 Day, replicate 3): 17.3047 | PK curves (Round 4, Time 2 Day, replicate 4): 21.1219 | PK curves (Round 4, Time 2 Day, replicate 5): 21.2086 | PK curves (Round 4, Time 3 Day, replicate 1): 3.457 | PK curves (Round 4, Time 3 Day, replicate 2): 6.287 | PK curves (Round 4, Time 3 Day, replicate 3): 7.344 | PK curves (Round 4, Time 3 Day, replicate 4): 8.892 | PK curves (Round 4, Time 3 Day, replicate 5): 12.3135 | AUC0-t (Round 4): 2805.642 ± 501.797 ng·h/mL | AUC0-∞ (Round 4): 3022.978 ± 666.243 ng·h/mL | MRT0-t (Round 4): 16.883 ± 2.739 h | MRT0-∞ (Round 4): 22.801 ± 5.68 h | T1/2z (Round 4): 18.712 ± 5.773 h
